Measurements as given in the DeepSol protein solubility set.

Experiment: soluble on expression in E. coli; label from the status in PepcDB or PDB records

Sequence	soluble on expression in E. coli
MGSDKIHHHHHHMFYYERVNQFDTIAVSVDSVDRRRIKGTIDLDGLKFIMYFDYTQDVDIDYDLAGMIMTMPVINYAYFAKRIKLNFPVSLSFLKLVKEFIRINNIETFINSIVRRRYEFFLKEYLPSDEEITQENAEGRTEVLADISDGDKKKLEVDDRKVIVLSSGGKESLLTFGILKEIGAVVYPVFFNESGAHWKTAKVAYDYFSSKYENVLRVWSNVDRFYSFVNRHLKILDQDEIRRKADSYPVQMFIFPVYIFSVLPYVIKYGIGNIALGDELDDPIYEEPYHGIKHYYGVYDQTNDFNLTLTSFLREYGIHCKVFSAVYPIFGTLVEKILVQRYNDLFRVQRSCHLCHYEGGDVKPCGTCSKCLGVLLFMLNAEADPTEAGYSIEHVKQLEDNVNSASMRLDPDELEYLKAKVFEGRRINSHIEGIHQLPGENSAFSLVPERFRDGVRSIVSKYSTGFYKFVGSEWVKID	not soluble
MRGSHHHHHHGSAHGLTDDMTMHFRMEGCVDGHKFVIEGNGNGNPFKGKQFINLCVIEGGPLPFSEDILSAAFDYGNRLFTEYPEGIVDYFKNSCPAGYTWHRSFRFEDGAVCICSADITVNVRENCIYHESTFYGVNFPADGPVMKKMTTNWEPSCEKIIPINSQKILKGDVSMYLLLKDGGRYRCQFDTIYKAKTEPKEMPDWHFIQHKLNREDRSDAKNQKWQLIEHAIASRSALP	soluble
MGHHHHHHSHMAYEISKKVLHIVGKTNATYKLIEEGDKILLGLSGGKDSIMLACILARMQKHAPFKFDFKAVTVHYGLGEDLKWLSDLCQEQGIEHEIIYTQIAATINEKRREKSSFCSFCSRLRRGTLYSKALEEGYNKVAIAHHLDDAVESFFMNFTYNGSLRSMPPIYRAENGLLVIRPLIKVREASSIHFVTSQNIPVAPDCNCPAKQPTSDKPPIARLATKNFLKEMQNLHPRFFDSLENAFNNVQANSFSDAKYLDA	not soluble
MSLGITDSGLSEKQVEKLVRASRPNNPSPDIWARAIKESLEELGQPVDKEHVSAVCAVISQVSAFSISPKNSRMASILRKKIEAAESNEVLRLLIETRLDQTASNGRTFRENIDSIQSELDFEKWYDEFTSASVTKPILLVLKKDASDLITTAGSMQVSVKFAEEYPKKPRNAGGGSVRDMLYTCKGGVFYGTAYLLDYKHNYDDWKYVFADFNAGHYTSRNAGFQKMLGRLTHRMVDTDGDLLSYENGNATPSVTYVTFINFLKDKGIGFDEKKVMKDFQQEKSYDFEETWSYKTLSELYKKKYGHPIYAVLPDIPLNSPKFVSKNLSTKWFAERVKSRYNHCMRTSIEGHHHHHH	soluble
MSLDSSRIKVVFWHEMKGPGQQAIDAYVKAFNHQQSKYEVVAEFEGGYNGVIQKILNTHGTAASPALFQSMDISTSQMYHSGFTTPMQKFIDRDHYDADQIIPGAKAIVMRDNQLLAMPFNASQTALYYNKRVLRQYGITPPPVDPTYDDITRVAKAIHDKSHGKVKGMTMEAYSWLFEQLVANAGVPVANHDNGHTGNATKVDFTSPAAINAMKWVKENIDYGDFMNFGSGGNAAANEAASFLAGHLGIFMQSSANTGQLYQVLKNDLGVTYFPRPNGQRANGIAVGGAALWIANDKPSAVQDGAWEFTKFLASAQTQADWQAKTGYLAVNKGAKDEPTLKKLFKKSPVLEVSGNQMLRTKPNNTNSGVFVDGWVPARTAIQTAMQQIFAGQDIRQSLQTAENTYNKVLESNNRANGREGHHHHHH	soluble
GASSLKDEVPTETSEDFGFKFLGQKQILPSFNEKLPFASLQNLDISNSKSLFVAASGSKAVVGELQLLRDHITSDSTPLTFKWEKEIPDVIFVCFHGDQVLVSTRNALYSLDLEELSEFRTVTSFEKPVFQLKNVNNTLVILNSVNDLSALDLRTKSTKQLAQNVTSFDVTNSQLAVLLKDRSFQSFAWRNGEMEKQFEFSLPSELEELPVEEYSPLSVTILSPQDFLAVFGNVISETDDEVSYDQKMYIIKHIDGSASFQETFDITPPFGQIVRFPYMYKVTLSGLIEPDANVNVLASSCSSEVSIWDSKQVIEPSQDSERAVLPISEETDKDTNPIGVAVDVVTSGTILEPCSGVDTIERLPLVYILNNEGSLQIVGLFHVAAIKS	soluble
MQDFLWKSCAIMGTMKLRIEQDDQYKELEIHITYGQKDKLIERILGFLETVDRQLSCYQEGRKYLVNFSDIYYIESVDKKTFVYLADEIYQTDLRLYQLLHDLQHDGFVQISKSCLLNINVLENIRPLFNSRMEATLLNGERVIVNRRYLPDVKEALKGIQ	not soluble
MGSDKIHHHHHHMGIYMRDDILDIITLTTDFGTNEGYVGAMKGRILNILKKYNKDAKIIDISHEIKPFNIYHGAYVLLTAIPYFPPSVHVAVIDPTVGSERKSIVIETKSGYYLVGPDNGLFTYVAEKLGIKRIIKIDEERYKPSSTFHGRDVYAVVGAEILINNGYDGEELDEMVKIDETKKRVIHIDRFGNIITNIKKDEVTFKYYDTIMIKIRHKNGIEKIIKCKFVKSYFEEKNNFICLINSEGFLEISKFMDNASKLLNVDYLDEIEIIY	not soluble
MNTLVLPKTQHLVVFQEVIRSGSIGSAAKSLGLTQPAVSKIISDVEAYFGVELIVRKNTGVTLTEAGQVLLSWSESITREMKNMINEMNSMTCNTVVDVSFGFPSLIGFTFMSDMIHKFKEVFPKAQVSMYEAQLSSFLPALRDGRLDFAIGTLSNEMQLQDLHVEPLFESEFVLVASKSRTCTGTITLESLKDEQWVLPQTNMGYYSELLTTLQRNGISIENIVKTDSVVTIYNLVLNADFLTVIPCDMTTPFGSNQFITIPIQDTLPVARYAAVWSKNYRIKKAASVLVELAKQYSSYNGCRRRQLIEIE	soluble
MKKNLLAIALGSVIALTAAPYSLAANDSTIQSSADYSQLVTKRQVVDQLLNDAVEAFKSPARISHAGFTAKMPSNMEIVTDRLLEAYQLEPYRTDLLISAANAQIYNKNVDRAIELFEQALAVAPDDVDLHAYLAVWQRFKGNQAESDQHMATLAKLNAGKAADINRIFDTVDRVLATPLKEKADKGKLDNKGAIVTLGYALNPDGSMHQILVERLETTLAMAKANPDAIIILTGGVPKNHKTEGKLMADWLIGKGVSKDRIIEENYATSTVGNALFSSYALARHNIKHATIISSASHVRRGQTLFEIASWQTGPQGITFDTVSYPDKPLKDLAKASESELLGIYRDALRTYGMWSYRSYPLESRLEHHHHHH	soluble
MGGEDDELKGLLGLPEEETELDNLTEFNTAHNKRISTLTIEEGNLDIQRPKRKRKNSRVTFSEDDEIINPEDVDPSVGRFRNMVQTAVVPVKKKRVEGPGSLGLEESGSRRMQNFAFSGGLYGGLPPTHSEAGSQPHGIHGTALIGGLPMPYPNLAPDVDLTPVVPSAVNMNPAPNPAVYNPEAVNEPKKKKYAKEAWPGKKPTPSLLI	soluble
AIAETGGGAPLTKSSEAVEGDFVEDRLRGNEAFRRGNYEAAASYYSEALEKIRLAKTELPTQDRYPWSLEEVLIRCNRALVFLRLASAAALPNVGSNRFEEDACTAEHESEEATPCSLWQRAAEDASVALDLITDFEDEGESERVTELRVKALYRRMVANKGQNNFADAAKDAEALAKIRPEYRSEAELLAQRAAAESERAKQEALQKLKEVGNSFLSLFGVSIDNFQTKRNPDGTYSVSYCPKS	soluble
FSVEELSEILESHSIRLELQPILELETGRVGAAEGLLRINLDGTDVPTGQFVQSVEQAGLAPKLDIAVMREGINHIERLRAVCPTFSLALNLSGYSLSSAKIREELRAEFRARDLPRGSIRFEITETAPIEDIDAAKEFVQMLKDFGFHIVIDDFGAGHEPYQYLKKFDFSVLKIAGEFIEGMVTNRVDRSIVESIAQLAKDEEMETVAEFVSSKEILEAVREIGVTYAQGFHIGKSKPIDEFIATYLETNQTATWG	not soluble
MAHHHHHHMKCELASLIKENAQLGREMRGTPQLRVPQETDVAWRLRRDVLLHSEYPHVAACPEKDVERKDGRAVVVFQESKLQGEPPERTAAQKRSRSDHTAVVSVDPSVLKARASSLGERIVGAAGPSFEPYTAPPSWKMAKVLVGHRGWVWGAAVDPSNSWFATGGGDGVVKVWDLTTGALKLNLTGHKEGVRALSLSTLSPYMFTGSDDHSVKCWDLERNEIIRDFHGHKGSVHCVSTHPSLDIVLSGGRDKTVRVWDVRTRSCVHLLLGHSDSVMSLAVQQEDPQAISGGSDGMVYLWDIASGRAFTRLTRHKKPVRGLALSRQRVLVSCGADNIRVWSLPTGEFLFNASTLDNGKETKKEKEQEPQRWSCCSVSPRNVLAVGSQEGRLLFFDWSHPQQGPYQATKTRSVPGTLPGEGGINGLAFDASGSRLITAESDKSAKVWRTKE	not soluble
MGSVSTGNAGSGTVGTSTTSRADVMTFQPSSLPVSYVGETYNVQVGVTGGVGPYGYRLTAGTLPPGLKFAGGALSGTPTKAGSYSFAIQATDANLSTRVQEYTMNVDALPPLALKPTLPPGEIRGETRIPVTIQAPRAVRAARLSWDLGKDVQVTRVQPADAGSVVFWQQRGSVLTVDLGFRTVPRPDARIALITVKPAKAVTLKADALGYEARDGSGKMLVDKKRPGSEPVKPAEQPGDPKVDPKAADQKATDQKATDPKTVDPKTVTPADTVEGGPLPSPALPTPSLPPTLPPVTTPPANTPPVPTPTPPANQPAPAPAPQPAPAPQPTPPSGTGGALEHHHHHH	not soluble
MAIIKRSAATDNPNIEILSTPEQIDVLSAEALMEALQGDDLEQILRAIHQLEAADSVEFQQHQAALFTLLDRDTEQNPCSDAVFSLLAIRNNDEITTRLIPLLDSEAPYLRNQAIEILQHSPQQLERHIQDLLNHQDPDVRIFAIDIIGLLPHQSVPEWLMQVLQHEEHINVIGTAIDRVAQLSDPNFSTILGEVKQRFSHVPYLVFACDVAIKRLNT	not soluble
MQQQILERIEDCYQQAEAYFKRAFPRPTTQFTLRGRSAGTAHLQQNRLRFNPVLLRENSEAFLAEVVPHEISHLLCFQIFGKTKPHGREWQSIMLKLFKISPNTTHNFDTQSVKGKDVEYRCACGPIRLGIRRHNKVLRGETRYLCKRCHTHLTLALEHHHHHH	not soluble
MGSDKIHHHHHHAVSETISETAWCLDGFERPTGVNPVIKPLPTKFYCPMREDSVAWEESDTFNPAATIYDGKIVVMYRAEDNSAQGIGSRTSRLGYATSTDGIHFERDTKPAFYPAKDNQAENECPGGTEDPRIAMTEDGTYVLLYTQWNRKVPRLAVATSKDLKHWTKFGPAFEKAYNGKFKDEATKSASLVTTLKGDKQVIAKVNGKYFMYWGEKNVYAATSDNLIDWDPLLDENGELLKLFSPRSGYFDSQLTECGPPAILTKDGIVLLYNGKNEPGEKGDTAYPANSYCAGQALFDVNNPTKLIGRLDKPFLQPTDDFEKSGQYPAGTVFVEGLVYYRNKWYLYYGCADSFVAVAVSDKQLNF	not soluble
MHHHSHHHHSHMDVTIQHPWFKRTLGPFYPSRLFDQFFGEGLFEYDLLPFLSSTISPYYRQSLFRTVLDSGISEVRSDRDKFVIFLDVKHFSPEDLTVKVQDDFVEIHGKHNERQDDHGYISREFHRRYRLPSNVDQSALSCSLSADGMLTFCGPKIQTGLDATHAERAIPVSREEKPTSAPSSLEIRLLLEIRLL	soluble
MGSDKIHHHHHHMERIVDTADGRFDTRLTGTGNVTFILDHGMMSSHYQWGWLRGELLKQGRVFEYSRLGYGRSTRGKTKRLFTRQADELERVLALLDIKGPFVFIGHSLGAYISLELGRRRPDETAGIVLLDPSHPEVDAELPNWYERTQEEWNRFLYVLSHVRPLAWLIPDDLGARMFTSLPEADRIPMWRNMARKNHWRGTLDEWQAVEANNQHVLEVVEHIVPPVLVLSASDWAGGMPENWLNPELTKRINAAHERFAASLPDAAFHVIPNTNHYTIAGFSEEAATTIVSLIRNAFFK	not soluble
